Measurements published in PMC8339232.

Molecular target: PknF catalytic domain (cPknF) catalytic domain, 1-299 (UniProt P9WI75)
Conditions: reference: non-phosphorylated cPknF; sites T173,T175

PknF catalytic domain (cPknF) catalytic domain, 1-299 (from UniProt P9WI75)
other: volume fraction of dimers: stronger; reference 44
